# Assay results published in the supplement of paper PMC9170038.
# System: MS2 coat protein
# Test: apparent KD of MS2 coat protein; designed switch direction (-1 OFF switch, 1 ON switch): -1; higher = weaker reporter binding
# Summary of the method: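 SNAP-549-labelled MS2 coat protein was titrated, doubling from 0.7 or 1.5 nM to 3 µM, over designed RNA switches transcribed on Illumina chips by stalled E. coli RNA polymerase. Runs were done without input, with 200 uM small-molecule ligand, or with an oligonucleotide input. Apparent KD is the per-design median over clusters of curve-fitted normalised fluorescence.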
# [1] = input ligand: microRNA oligo, concentration not stated
# [2] = Eterna round: R95, input ligand: FMN 200 uM
# [3] = Eterna round: R95, input ligand: microRNA oligo, concentration not stated
# [4] = Eterna round: R95, input ligand: none
Sequence,apparent KD of MS2 coat protein (input ligand: FMN 200 uM),apparent KD of MS2 coat protein [1],apparent KD of MS2 coat protein (input ligand: none),apparent KD of MS2 coat protein [2],apparent KD of MS2 coat protein [3],apparent KD of MS2 coat protein [4]
"CCCAGAUAGGAAGGAUAUUGUACAUGAGGAUCACCCAUGUAAUAAAUGAGGAUCACGGAUGUAGACAAGAAGGUCCGGAUAGGC [Ostracism 7 - Jieux - Exclusion NG 2] (Eterna round: R96, puzzle: Exclusion NG 2)",108 nM,42.5 nM,50.2 nM,,,
"GGAUAUAAGGAAGGAUAUGAGCGCAACUGACGAUCAGAAGGUCCACAUGAGGAUCACCCAUGUGAUCUAUCAAUAUUAUACAUG [Prohibition 94 - Jieux - Exclusion NG 1] (Eterna round: R96, puzzle: Exclusion NG 1)",264 nM,52.9 nM,115 nM,,,
"CCACGGUGAGGAUAUCAAAGAUUGCGCUCGGAAGGUCAAUUUGAGAAGGCACAUGAGGAUCACCCAUGUUAGCG [Eternabot (L2) Solution 40] (Eterna round: R97, puzzle: Exclusion 4)",29.8 nM,,34.6 nM,,,
"AGUAACCGUCACGAAAGUGAUGGUUACACAAGCAAAUGUACAUGAGGAUCACCCAUGUCCUCAAUUGCUCGUCUUAU [Sensor 3 - 50] (puzzle: Sensor v3, turn-off variant 2)",,,,106 nM,165 nM,137 nM
"UUAUUAUAUGUAGGAUAUGCGUAUUAUUGUUAUGCAGAAGGACAUGAGGAUCACCCAUGUAUAUUAUUGUUAUGUAUUAUAUAU [Title] (Eterna round: R96, puzzle: Exclusion NG 1)",,26.6 nM,,,,
"CUGGUUGUCGAGGAUAUGCACCAGCUCACUGACGCAGAAGGCGACACAUGAGGAUCACCCAUGUCGGUUCGCGU [salish99_ex6_r004_436] (Eterna round: R97, puzzle: Exclusion 6)",30.7 nM,,28.2 nM,,,
AAGAAACAUGAGGAUCACCCAUGUGAGGAUAUGGAAAAGAAAAGAAAAGAAAGAAGAAUCAGAAGGCACAAAGG [salish99-ex1_r3_020] (puzzle: Exclusion 1),,,,40.8 nM,33.7 nM,37.6 nM
"GCAGUUCGAGUUAGGAUAUGAUUAAAAUUCGGAUAUCAGAAGGAACUUGAGGAUCACCCAAGUAUAGAUGUUGC [JR_BMEx4_Sub059] (Eterna round: R97, puzzle: Brourd's mod of Exclusion 4)",42.1 nM,,17.1 nM,,,
"UUACUGUGAGGAUAUUACAUUUAGCGGCUAGCAACUAGGGAUAAGAAGGCACAUGAGGAUCACCCAUGUCCCGU [Eternabot (L1) Solution 35] (Eterna round: R97, puzzle: Exclusion 4)",95.7 nM,,21.5 nM,,,
"UGUGUGAGACAGGAUAUGCUGGAUGUGUGGCGGGUAGAAGGGUCUACAUGAGGAUCACCCAUGUGGCCGGUUGG [Ex6 #69] (Eterna round: R97, puzzle: Exclusion 6)",15.8 nM,,18.9 nM,,,
"GCAGCAAAAUUCCAUAAAACCACAUGAGGAUCACCCAUGUCUCAGGAUAUGGUCUGGAUUACAGGCCAGAAGGGAGAAAGCUGC [Eli exng3 - 058] (Eterna round: R96, puzzle: Exclusion NG 3)",14.6 nM,12.6 nM,13.9 nM,,,
"AAUAAUAAUGUGAGGAUAUCUAGAGCUUCGGCUCUAGAGAAGGCACAUGAGGAUCACCCAUGUCUCAAUAAUAA [BmEx4/2-E4] (Eterna round: R97, puzzle: Brourd's mod of Exclusion 4)",263 nM,,53.4 nM,,,
"AAGUCGACGGUGAGGAUAUAGGUCGAACGACAGAUCUAGAAGGUACAUGAGGAUCACCCAUGUGGGUAACGUCG [Brourd's EX4 #35] (Eterna round: R97, puzzle: Brourd's mod of Exclusion 4)",36.8 nM,,32.4 nM,,,
"UUUUAGCAAGCGAGAUCCCACAUGAGGAUCACCCAUGUGCAUCCAGAAUUACUGGGUGCAAAAGCUCGUCUUAUAUA [Winner reversed engineered] (Eterna round: R97, puzzle: Sensor, turn-off variant 1)",54.9 nM,,50.1 nM,,,
AGAUUAUGAGGAUAUCGAGUUUAGUACAUGAGGAUCACCCAUGUUAUCCAGGUCUCGUUUCGAGAAGGCAUGAUUC [LRO-Ex5-09] (puzzle: Exclusion 5),,,,,35.3 nM,
"AAAUAAAAACAAGCAAAACACAUGAGGAUCACCCAUGUAAAGGGUGAAGUUCGCACCCAAAAAUAAAAUAAAUAAAA [another turnoff var 1st] (Eterna round: R96, puzzle: Sensor v2, turn-off variant)",26.7 nM,29.8 nM,24.9 nM,,,
"UUCGUGUAAGGAUAUACGACUCAUCCCAAUGGGACGAGCACGUAGAAGGUACAUGAGGAUCACCCAUGUGCUCC [Eddianle] (Eterna round: R96, puzzle: Exclusion 4)",284 nM,33.3 nM,39.9 nM,,,
GAUCAACAUGAGGAUCACCCAUGUGAGGAUAUGAUACUAUGUACUUCGGUACAUAGUAUCAGAAGGCACUAGGA [Ex1-3: 40] (puzzle: Exclusion 1),,,,,64 nM,
CCAGGCAGUGUGAGGAUAUGCUGGUCCUUGGAUCAGCAGAAGGCACAUGAGGAUCACCCAUGUGAAUAGCUUGG [JL bmx4 3.25] (puzzle: Brourd's mod of Exclusion 4),,,,105 nM,20.5 nM,21.8 nM
"AAGAAAAGGAGAGGAUAUGCGAAAGGAAGUGUAGCAGAAGGCUUCGGGUAAGUCCACAUGAGGAUCACCCAUGUUAAUAAAAGA [PowerStrip EXNG 1.19] (Eterna round: R96, puzzle: Exclusion NG 1)",345 nM,290 nM,436 nM,,,
"GUGAAGUAAGGAUAUACAUGAGGAUCACCCAUGUGGAGGAAGGUGAUGGGAGUAGGUAGUAGAAGGUACGAGGA [JR_Exclu3_Sub064] (Eterna round: R96, puzzle: Exclusion 3)",304 nM,134 nM,207 nM,,,
"ACAAGCUUUUUGUUCGUCUUAUAAUAAUAAAUAAAUAUAACAUGAGGAUCACCCAUGUUGAGAAGACAGCCUCAUGU [Sesor Array 23 - Jieux - Sensor v3, turn-off variant 2] (puzzle: Sensor v3, turn-off variant 2)",,,,121 nM,42.7 nM,104 nM
"UAAUAACAUGUAGGAUAUGCGUGGCGAAGCUAUGCAGAAGGACAUGAGGAUCACCCAUGUUAAAGCGUCUGAGAACAGAUGCGA [Mat - Exclusion NG 1 - Mod of JL - D98] (Eterna round: R96, puzzle: Exclusion NG 1)",165 nM,24.9 nM,30.5 nM,,,
CAGGUGUUAGGAUAUCGGAGGUUGAGGCAGACGGGAAUAUUCGAGAAGGAACAUGAGGAUCACCCAUGUAGUAG [JR_Exclu4_Sub037] (puzzle: Exclusion 4),,,,,21.5 nM,
